In assay [1] the test system is PSTPIP tyrosine phosphorylation. The assay can be described thus: Tyrosine phosphorylation of PSTPIP in COS cells co-transfected with V-src. In kind it is cell-based. As to conditions: COS cells expressing PSTPIP and V-src. As for the experimental part: Baf3 cells were lysed in 1% Triton, 50 mM HEPES. 10% glycerol and 5 mM EDTA containing 1 μg/ml aprotinin, PMSF, leupeptin and pepstatin were 1 mM Sodium Vanadate and 10 mM Iodoacetic acid. Cells were treated with 0.1 mM Pervanadate for 4 hours before lysis. Immunoprecipitations were performed in the vanadate-containing lysis buffer using 1 μg/ml anti-PSTPIP polyclonal antibody and 400 μg of lysate protein at 4° C. overnight. Western blots were performed using 1 μg/ml affinity purified anti-PSTPIP or 1:5000 dilution of commercial 4G10 anti-phosphotyrosine monoclonal (Upstate Biotech). Signal was detected by HRPO-ECL reagents (Pierce). The C221-S mutant was as previously described (Cheng et al., (1996) supra). The PTP HSCF D197-A mutant was generated using PCR. Mutagenesis primer D197A.F ([…]) (SEQ ID NO:24), corresponding to nucleotide 591, and primer D197A.R ([…]) (SEQ ID NO:25) which corresponds to the stop codon, were used in PCR to generate a fragment that could be cut with Mscl and XbaI. pRK.HA.38 WT, a plasmid which encoded the wild type enzyme under the control of the cytomegalovirus promoter (Cheng et al., (1996) supra), was digested with Clal and Mscl and the resulting 600 bp fragment was ligated with the Mscl-Xbal PCR fragment into the Clal and Xbal sites of the pRK.tkneo. A plasmid encoding the V-src oncogene under the control of the SV40 early promoter was the kind gift of Dr. Art Levinson (CEO-Genetech, Inc.). NIH 3T3 cells and the COS-7 cells were cultured in high glucose DMEM supplemented with 10% FBS, 2 mM L-Glutamine, 10 mM HEPES pH 7.2 and pen-strep.
COS-7 cells were transfected by electroporation. Briefly, 1.5×10^6 COS-7 cells were mixed with 24 μg total DNA in PBS and electroporated at 960 μF, […] (Bio-Rad™ Gene Pulsar™). Following electroporation, cells were seeded in 10 cm dishes and incubated for 3 days. 10-cm dishes of transfected COS cells were washed twice with ice-cold PBS, and lysed in 1 ml of M-RIPA (50 mM Tris 7.4, 1% NP40, 0.25% DOC, 150 mM NaCl, 1 mM sodium ortho-vanadate, 1 mM NaF plus Complete™ Protease Inhibitors (Boehringer Mannheim)). Lysates were incubated for 15 minutes with 100 μl UltraLink Immobilized Protein A/G™ (Pierce) at 4° C., followed by centrifugation for 5 minutes. Supernatants were collected and stored at −70° C. or directly immunoprecipitated. 5 μg of M2 or 12CA5 was added to 500 μl of lysate and incubated overnight at 4° C. Ultralink Protein A/G™ was added and incubation continued for 2 hours at 4° C. The immune complexes were washed 3 times with M-RIPA. The proteins were subjected to SDS-PAGE and transferred to nitrocellulose in 1X Transfer Buffer™ (Novex). Immunoblots were blocked overnight at 4° C. in 3% milk/PBS. To detect Flag-tagged PIP, blots were incubated with 10 μg/ml Bio-M2 (Biotinylated anti-FLAG monoclonal Ab, KODAK) followed by incubation in 10 μg/ml streptavidin-HRP (UBI). To detect HA-tagged PTPhscf, blots were incubated in anti-(HA)-peroxidase (Boehringer Mannheim) as per manufacturer's instructions. To detect phosphotyrosine, blots were incubated in HRP-conjugated 4G10 (anti-phosphotyrosine monoclonal, UBI) as per manufacture's instructions.
COS cells were transfected with a constant amount of either the wild type of W232A mutant of PST PIP and cotransfected with increasing amounts of a plasmid encoding the v-Src tyrosine kinase (Spencer et al, (1997), supra). Plasmid concentrations were equalized with an empty vector containing the CMV promoter. After 48 hours, lysates were prepare and immunoprecipitated with anti-FLAG monoclonal antibody. Precipitates were run on SDS polyacrylamide gels, blotted, and probed with either anti-FLAG antibody or anti-phosphotyrosine antibody as previously described (Spencer et al, (1997), supra). Bound antibodies were visualized using enhanced chemiluminescent reagents.

Assay [2] relates to CHO cells. In words: Confocal microscopy of PST PIP forms expressed in CHO cells. Format: cell-based, Chinese hamster. The conditions noted are these: transfected CHO cells. As for the experimental part: Confocal microscopy was performed as previously described (Spencer et al, (1997), supra). Briefly, CHO cells in chamber slides were transfected using Lipofectamine and the indicated plasmids. 48 hours later, cells were fixed in formaldehyde and stained with an anti-FLAG epitope specific antibody (Kodak) and Fluorescein-Phalloidin (Molecular Probes). Anti-Flag stained cells were washed and stained with Cy3-conjugated sheep anti-mouse IgG. Stained cells were observed using Molecular Dynamics Confocal Microscope™ (2001) and analyzed with ImageSpace™ software (Molecular Dynamics).

B1: D197-A: dominant negative PTP HSCF, active site aspartate mutated to alanine (protein, UniProt Q99952 1-460, looked up, variant D197A)
Tyrosine-protein phosphatase …: MSRSLDSARSFLERLEARGGREGAVLAGEFSDIQACSAAWKADGVCSTVAGSRPENVRKNRYKDVLPYDQTRVILSLLQEEGHSDYINGNFIRGVDGSLAYIATQGPLPHTLLDFWRLVWEFGVKVILMACREIENGRKRCERYWAQEQEPLQTGLFCITLIKEKWLNEDIMLRTLKVTFQKESRSVYQLQYMSWPARGVPSSPDHMLAMVEEARRLQGSGPEPLCVHCSAGCGRTGVLCTVDYVRQLLLTQMIPPDFSLFDVVLKMRKQRPAAVQTEEQYRFLYHTVAQMFCSTLQNASPHYQNIKENCAPLYDDALFLRTPQALLAIPRPPGGVLRSISVPGSPGHAMADTYAVVQKRGAPAGAGSGTQTGTGTGTGARSAEEAPLYSKVTPRAQRPGAHAEDARGTLPGRVPADQSPAGSGAYEDVAGGAQTGGLGFNLRIGRPKGPRDPPAEWTRV
B1: the “level of tyrosine phosphate on PSTPIP on cotransfection of PTP HSCF forms” value in assay [1] is listed as “slightly more efficient dominant negative protein”.

B2: delta 50: PST PIP missing the N-terminal 50 amino acids (protein)
chain: ERYGKELVQIARKAGGQTEMNSLRTSFDSLKQQTENVGSAHIQLALALREELRSLEEFRERQKEQRKKYEAIMDRVQKSKLSLYKKTMESKKAYDQKCRDADDAEQAFERVSANGHQKQVEKSQNKAKQCKESATEAERVYRQNIEQLERARTEWEQEHRTTCEAFQLQEFDRLTILRNALWVHCNQLSMQCVKDDELYEEVRLTLEGCDVEGDINGFIQSKSTGREPPAPVPYQNYYDREVTPLIGSPSIQPSCGVIKRFSGLLHGSPKTTPSAPAASTETLTPTPERNELVYASIEVQATQGNLNSSAQDYRALYDYTAQNSDELDISAGDILAVILEGEDGWWTVERNGQRGFVPGSYLEKLDYKDDDDK
As to B2, the “cellular localization of PST PIP forms (assay for correct folding)” value in assay [2] is recorded as “formed large aggregates within the cytoplasm”.

B3: wild type PTP HSCF: PEST-type protein tyrosine phosphatase PTP HSCF, wild type (protein)
chain: MSRHTDLVRSFLEQLEARDYREGAILAREFSDIKARSVAWKSEGVCSTKAGSRLGNTNKNRYKDVVAYDETRVILSLLQEEGHGDYINANFIRGIDGSQAYIATQGPLPHTLLDFWRLVWEFGVKVILMACQETENGRRKCERYWAREQEPLKAGPFCITLTKETTLNADITLRTLQVTFQKEFRSVHQLQYMSWPDHGVPSSSDHILTMVEEARCLQGLGPGPLCVHCSAGCGRTGVLCAVDYVRQLLLTQTIPPNFSLFQVVLEMRKQRPAAVQTEEQYRFLYHTVAQLFSRTLQDTSPHYQNLKENCAPICKEAFSLRTSSALPATSRPPGGVLRSISVPAPPTLPMADTYAVVQKRGASAGTGPGPRAPTSTDTPIYSQVAPRAQRPVAHTEDAQGTTALRRVPADQNSSGPDAYEEVTDGAQTGGLGFNLRIGRPKGPRDPPAEWTRV
modifications: left off: small tags and cut ends
B3: in assay [1], the “level of tyrosine phosphate on PSTPIP on cotransfection of PTP HSCF forms” value is listed as “decreased level of tyrosine phosphate”.

B4: delta 75: PST PIP missing the N-terminal 75 amino acids (protein)
chain: SFDSLKQQTENVGSAHIQLALALREELRSLEEFRERQKEQRKKYEAIMDRVQKSKLSLYKKTMESKKAYDQKCRDADDAEQAFERVSANGHQKQVEKSQNKAKQCKESATEAERVYRQNIEQLERARTEWEQEHRTTCEAFQLQEFDRLTILRNALWVHCNQLSMQCVKDDELYEEVRLTLEGCDVEGDINGFIQSKSTGREPPAPVPYQNYYDREVTPLIGSPSIQPSCGVIKRFSGLLHGSPKTTPSAPAASTETLTPTPERNELVYASIEVQATQGNLNSSAQDYRALYDYTAQNSDELDISAGDILAVILEGEDGWWTVERNGQRGFVPGSYLEKLDYKDDDDK
Turning to B4, in assay [2], the “cellular localization of PST PIP forms (assay for correct folding)” value is reported as “formed large aggregates within the cytoplasm”.

Values taken from patent publication US6887705B1, “Tyrosine phosphorylated cleavage furrow-associated proteins (PSTPIPs)” (Genentech, Inc., priority 1997, dated 2005).
